Biological target: T1, WT RBD (Wuhan) (SARS-CoV-2, Wuhan (RBD identical in …, UniProt P0DTC2))
T1 construct: also called Wuhan RBD; native RBD
Assay: crystal structure
Details: both partners purified

B1: EY6A Fab (Fab, V domains shown)
VH: EVQLVESGGGVVQPGRSLRLSCAASAFTFSSYDMHWVRQAPGKGLEWVAVISYDGSNKYYADSVKGRFTISRDNSKNTLYLQMNSLRAEDTAVYYCAKDGGKLWVYYFDYWGQGTLVTVSS
VL: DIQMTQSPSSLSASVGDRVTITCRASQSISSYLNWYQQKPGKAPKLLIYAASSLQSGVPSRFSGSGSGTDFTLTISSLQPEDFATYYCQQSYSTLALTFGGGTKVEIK
  binding result: binds
